Reference: patent US20240350646A1, “METHODS AND COMPOSITIONS FOR DELIVERY TO AND ACROSS THE BLOOD BRAIN BARRIER” (NUtech Ventures, priority 2021, published 2024)
Like-named read-outs stand apart in the source and are kept apart here.

Columns and labels:
[1] = middle aged humans of around 40 years of age; cited from earlier work
human claudin-1 = target: T1, human claudin-1 (Homo sapiens, UniProt O95832); test: Microscale thermophoresis (MST) binding
T1 construct: made in house
T1 sequence (O95832 1-211): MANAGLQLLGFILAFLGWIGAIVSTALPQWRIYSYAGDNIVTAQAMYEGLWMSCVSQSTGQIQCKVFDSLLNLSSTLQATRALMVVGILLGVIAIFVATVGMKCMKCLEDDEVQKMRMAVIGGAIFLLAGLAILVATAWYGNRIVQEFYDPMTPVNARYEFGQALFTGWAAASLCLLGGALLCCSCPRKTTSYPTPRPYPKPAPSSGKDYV
Description: Human claudin-1 was expressed and purified as reported previously (Vecchio & Stroud, 2019, PNAS USA, 116:17817-24). MST measurements were performed using a Monolith instrument (NanoTemper Technologies). For experiments with human claudin-1, the assay buffer contained 10 mM Tris HCl, pH 8.0, 100 mM NaCl, 4% glycerol, and 0.04% n-Dodecyl-β-D-Maltopyranoside (β-DDM). NPs and peptides were labeled with AF647 prior to MST analysis as described above. For the binding experiments, the concentration of human claudin-1 was varied from 2.2-73,500 nM and the AF647-labeled C1C2-NP was fixed at 70 nM, while the AF647 labeled NPs and AF647 labeled C1C2 peptide were fixed at 1 and 0.3 μM, respectively. Binding of the AF647 labeled C1C2-NP to human claudin-3, -4, and -9 were tested using 0.4-14000 nM, 0.8-28000 nM, and 0.6-20000 nM, respectively; with the AF647 labeled C1C2-NP fixed at 70 nM. This assay buffer was similar, except β-DDM was replaced with 0.1% n-Undecyl-β-D-Maltopyranoside (beta-UDM). In order to check non-specific binding of β-DDM micelles to the AF647 labeled C1C2-NP, the concentration of beta-DDM was varied from 0.03-900 μM and the concentration of the AF647-labeled C1C2-NP was fixed at 1 μM. A similar experiment was performed wherein the concentration of beta-UDM was varied from 0.3-10,000 μM and the concentration of AF647-labeled control NP was fixed at 1 μM. The non-specific binding of human claudins 4 and 9 to the NP was examined by varying the concentrations of human claudins 4 and 9 from 0.7-20,100 nM and 0.8-31,100 nM, respectively. The human claudin sub-dilutions were mixed with the NPs or peptides and loaded in standard monolith NT.115 capillary tubes for measurement. All experiments were conducted at 23° C. using the nano-red channel of the Monolith instrument and the data were analyzed by using either Monolith analysis software or Graph Pad Prism, version 9 (Graph Pad Software, San Diego, California).

| Binding to human claudin-1 (in words) (human claudin-1) | Binding to human claudin-1 (in words) (human claudin-1; listed as C1C2 peptides) | Compound | K^trans, hippocampus [1] [min⁻¹] |
| --- | --- | --- | --- |
| – | – | CNC[C@H](O)[C@@H](O)[C@H](O)[C@H](O)CO.CNC[C@H](O)[C@@H](O)[C@H](O)[C@H](O)CO.O=C([O-])CN(CCN(CC(=O)[O-])CC(=O)O)CCN(CC(=O)O)C(COCc1ccccc1)C(=O)[O-].[Gd+3] (stereo not drawn) [MultiHance] | ~0.001 |
| little binding | no binding | C1C2 peptide: Peptide SSVSQSTGQIQSKVDSLLNLNSTQATR (SEQ ID NO: 6) purchased from Genscript; binds first extracellular loop of claudin-1 (Ac-SSVSQSTGQIQSKVDSLLNLNSTQATR-NH2) | – |
